Source: patent US5733879A, “Peptides and proteins, process for their preparation and their use as cholesterol acceptors” (N.V. Innogenetics, S.A., priority 1992, dated 1998)
“And” between values parts separate entries of the source, which are not always exact repeats. Identical values can stand only once. Where no end group is shown, it is not given here.

Experiments:
[1] = Trp fluorescence emission of peptides and complexes; assay type: physicochemical; conditions: for Trp maximal emission wavelength, free: free peptide or protein; for Trp maximal emission wavelength upon phospholipid binding: in the phospholipid complex
Protocol: The measurement of the Trp fluorescence emission in the peptides and in the complexes was used to monitor complex formation. The fluorescence measurements were performed on an Aminco SPF-500 spectrofluorimeter equipped with a special adapter (Aminco-J4-9501) for the fluorescence polarisation measurements. The fluorescence polarization of the lipid-peptide complexes labelled with diphenyl hexatriene (DPH) (molar ratio of 500:1 lipid:DPH) was measured as a function of the temperature to detect changes in the fluidity of the phospholipid acyl chains due to lipid-peptide association. The excitation wavelength was set at 365 nm and emission was detected at 427 nm. Temperature scans between 15° and 40° C. were performed with a circulating water bath (Julabo) at a rate of 0.6° C./min.

[2] = Composition and gel chromatography of the isolated phospholipid-protein complexes; assay type: physicochemical; conditions: for Composition DPPC/Protein w/w: isolated complex with DPPC, maximum of elution peak
Protocol: Complexes were obtained by incubation of the peptides with dimyristoylphosphatidylcholine (DMPC, Sigma, St Louis, Mo.) vesicles at a DMPC/peptide, w/w ratio of 3/1 at 25° C. for 16 h. Complexes with dipalmitoylphosphatidylcholine (DPPC) were generated by the cholate dialysis procedure (Vanloo et al., 1991). All complexes were isolated by gel chromatography (FIG. 4) on a Superose PG column in a 0.01M Tris-HCl buffer, pH 8.0, 0.15M NaCl, 1 mM NaN3, 0.1 g/L EDTA. The column was first saturated with the phospholipid to avoid dissociation of the lipid-peptide complexes. The complexes were detected by continuous monitoring of the optical density at 280 nm and by measurement of the Trp emission of the fractions on a Jasco SP500 spectrofluorimeter. The composition and size of the complexes, were determined on the two fractions with maximal UV absorption in the elution peak of the complexes. The composition was determined by quantitation of the phospholipids using an enzymatic assay (Biomerieux, France), and of the peptide by an HPLC phenylalanine assay on a C18 reversed-phase column, after hydrolysis (Vanloo et al., 1991).

[3] = Turbidity decrease at 325 nm on complex formation with DMPC vesicles (lipid binding); conditions: from turbidity decrease with DMPC vesicles, 15-25° C.
Protocol: FIG. 1 represents the turbidity decrease (on the y-axis, expressed as E/Eo, with E being the turbidity measured at different temperature points and Eo being the turbidity measured at 15° C.) at 325 nm upon the formation of complexes with DMPC vesicles as a function of the temperature (°C.), (x-axis) and on which:
The formation of small discoidal particles between DMPC vesicles and the peptides was monitored by measuring the turbidity decrease at 325 nm as a function of temperature. […] The turbidity decrease initiated by the peptide-lipid association started already at 17° C., below the DMPC transition temperature and stabilized around 23° C. The turbidity decrease enables to determine the binding affinity of lipids to the peptides of the invention. M 1 has a strong lipid binding capacity while 18A and M4 have quite similar lipid binding affinity. The lipid binding of M3 is low compared with the other peptides.

J774 murine macrophages = assay: Cellular cholesterol efflux from lipid-loaded macrophages; assay type: cell-based; conditions: for Vmax (cholesterol efflux): phospholipid-peptide complexes, cholesterol-loaded J774 cells, 24 h; for efflux of free cholesterol into the medium: protein concentration of the complex in the medium 100 μg/ml, 24 h incubation
Protocol: J774 murine macrophages are grown in DMEM (Gibco) with addition of 10% fetal calf serum (FCS), in a 5% CO2 atmosphere. Cells are seeded in 35 mm dishes at a density of 2×10^6 /dish, grown for 18 h in 2ml DMEM-10% FCS and used as confluent monolayers. After 18 h, the cells are washed twice with DMEM and incubated with acetylated LDL at a concentration of 100 μg apo B/ml for 24 h in a medium consisting of DMEM and 10% lipoprotein deficient serum (LPDS). LPDS is prepared from fetal cell serum (Gibco) by eliminating all lipoproteins by ultracentrifugation. After loading with cholesteryl esters, cell monolayers are washed with DMEM.
The cholesteryl ester-laden cells are incubated in 2 ml DMEM supplemented with 1 g/l bovine serum albumin and containing the Sandoz 58-035 compound at a concentration of 1 μg/ml medium as inhibitor of the acyl-CoA:cholesterol acyl transferase enzyme (ACAT) in order to prevent the re-esterification of the cellular cholesterol (Brown et at., 1980). The cholesterol acceptors, i.e. the discoidal peptide-lecithin complexes were added to the medium at concentrations varying between 10 and 200 μg peptide/ml and cells were incubated for 24 h.
After incubation, cells are washed once with phosphate buffer pH 7.4, 0.15N NaGl (PBS) containing 2 g/l BSA and twice with PBS alone. Lipid extracts are prepared by addition to the cell pellet of 5 ml hexane/isopropylalcohol (3:2) (Phillips et at., 1987). Fifty μl of a cholesteryl heptadecanoate solution in chloroform at a concentration of 500 μg/ml are added as internal standard for the HPLC quantitation of cholesteryl esters. After vortex-mixing for 3 min and centrifugation at 3000 rpm for 15 rain, the organic phase supernatant is dried, the precipitate is dissolved in 1 ml chloroform and washed three times. The dry residue is finally dissolved in 50 μl of a mixture of chloroform:acetonitrile:isopropylalcohol (1:1:1), of which 20 μl are injected into the HPLC system.
The same extraction procedure is applied to 1 ml of the medium. For quantification of the unesterified cholesterol fraction, beta-sitosterol is used as internal standard according to methods known in the art.
After delipidation, cellular proteins were dissolved in 0.1M NaOH and the proteins were assayed either by the method of Lowry (Lowry et al., 1951) or with the bicinchoninic acid (BCA) reagent using a kit for protein assay manufactured by Pierce (Pierce Europe, oud-Beijerland, Holland). In both cases bovine serum albumin was used as a standard.

Substance	Trp maximal emission wavelength, free [1]	Trp maximal emission wavelength upon phospholipid binding [1]	Composition DPPC/Protein w/w [2]	lipid binding capacity / affinity [3]	Vmax (cholesterol efflux) (J774 murine macrophages)	efflux of free cholesterol into the medium (J774 murine macrophages)	complex size on Superose PG column ([2]; DPPC complexes, cholate dialysis)
EWLKAFYKKVLEKLKELF [M1]	341 nm	335 nm	3/1	strong	111 μg cholesterol released from t	–	–
EWLEAFYKKVLEKLKELF [M4]	–	–	3/1	quite similar	50 μg cholesterol released from t	20 µg	–
EWLKAEYEKVEEKLKELF [M3]	–	–	4/1	low	77 μg cholesterol released from t	–	much larger
apo AI: native plasma apo AI purified from human plasma; major apoprotein constituent of HDL	333 nm and 338 nm	329 nm	2/1	–	52 μg cholesterol released from t	~8 µg	–
EWLKAEYEKVLEKLKELF [M2]	353 nm	342 nm	2/1	–	48 μg cholesterol released from t	–	–
